Source: patent US20190041402A1 (GOVERNING COUNCIL OF THE UNIVERSITY OF TORONTO, published 2019)

Columns and labels:
mouse αKlotho = target: T1, mouse αKlotho (mouse, UniProt O35082 35-982); experiment: SPR (ProteOn XPR36), Fab captured by anti-IgG(H+L), mouse αKlotho injected in serial dilutions, Langmuir fit
T1 construct: also called Mu aKL
T1 sequence (looked up): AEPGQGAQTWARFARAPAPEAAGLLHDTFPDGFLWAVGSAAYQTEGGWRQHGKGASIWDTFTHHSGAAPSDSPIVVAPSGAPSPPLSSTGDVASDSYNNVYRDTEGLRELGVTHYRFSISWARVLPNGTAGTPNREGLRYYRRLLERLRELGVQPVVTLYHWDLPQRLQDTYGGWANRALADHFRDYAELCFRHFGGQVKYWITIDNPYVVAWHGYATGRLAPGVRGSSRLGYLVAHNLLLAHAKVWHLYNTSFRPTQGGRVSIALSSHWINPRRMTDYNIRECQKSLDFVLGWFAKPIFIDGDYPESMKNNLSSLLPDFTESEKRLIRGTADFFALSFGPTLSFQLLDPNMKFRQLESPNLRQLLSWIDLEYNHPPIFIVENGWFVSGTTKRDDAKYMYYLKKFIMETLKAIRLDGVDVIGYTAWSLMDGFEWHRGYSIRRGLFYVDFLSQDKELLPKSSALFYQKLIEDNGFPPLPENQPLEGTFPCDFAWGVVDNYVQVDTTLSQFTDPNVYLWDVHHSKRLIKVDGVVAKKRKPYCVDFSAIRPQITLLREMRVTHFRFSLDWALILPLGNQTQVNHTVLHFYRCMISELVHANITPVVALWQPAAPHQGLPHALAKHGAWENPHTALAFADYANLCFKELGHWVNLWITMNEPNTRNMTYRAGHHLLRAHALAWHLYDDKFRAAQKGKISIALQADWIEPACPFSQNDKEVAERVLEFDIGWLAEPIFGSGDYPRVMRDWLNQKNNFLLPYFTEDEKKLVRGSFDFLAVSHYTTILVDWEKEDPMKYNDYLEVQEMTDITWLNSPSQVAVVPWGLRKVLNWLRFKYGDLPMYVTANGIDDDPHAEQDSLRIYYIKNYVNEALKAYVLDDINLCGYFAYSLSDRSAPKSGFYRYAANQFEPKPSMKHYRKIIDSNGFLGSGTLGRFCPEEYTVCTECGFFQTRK
Protocol: Estimated affinities against human and mouse antigen for select αKlotho Fabs were obtained by surface plasmon resonance on a ProteOn XPR36 (FIG. 17). Fabs were captured using an anti-IgG(H+L) antibody and serial dilutions of αKlotho were injected. Binding curves were fitted to the Langmuir model. (A) Determined Kon, Koff and KD values. (B) and (C) Binding curves for human and mouse antigen respectively.

[1] = target: T2, extracellular domain (ECD) of human αKlotho, amino acids E34-S981 with C-terminal 6-His tag (R&D Systems … (human, UniProt Q9UEF7 34-981)); experiment: SPR, Fab captured by anti-H+L antibody, αKlotho injected
T2 construct: range 34-981; also called αKlotho (aa34-981); target antigen
T2 sequence: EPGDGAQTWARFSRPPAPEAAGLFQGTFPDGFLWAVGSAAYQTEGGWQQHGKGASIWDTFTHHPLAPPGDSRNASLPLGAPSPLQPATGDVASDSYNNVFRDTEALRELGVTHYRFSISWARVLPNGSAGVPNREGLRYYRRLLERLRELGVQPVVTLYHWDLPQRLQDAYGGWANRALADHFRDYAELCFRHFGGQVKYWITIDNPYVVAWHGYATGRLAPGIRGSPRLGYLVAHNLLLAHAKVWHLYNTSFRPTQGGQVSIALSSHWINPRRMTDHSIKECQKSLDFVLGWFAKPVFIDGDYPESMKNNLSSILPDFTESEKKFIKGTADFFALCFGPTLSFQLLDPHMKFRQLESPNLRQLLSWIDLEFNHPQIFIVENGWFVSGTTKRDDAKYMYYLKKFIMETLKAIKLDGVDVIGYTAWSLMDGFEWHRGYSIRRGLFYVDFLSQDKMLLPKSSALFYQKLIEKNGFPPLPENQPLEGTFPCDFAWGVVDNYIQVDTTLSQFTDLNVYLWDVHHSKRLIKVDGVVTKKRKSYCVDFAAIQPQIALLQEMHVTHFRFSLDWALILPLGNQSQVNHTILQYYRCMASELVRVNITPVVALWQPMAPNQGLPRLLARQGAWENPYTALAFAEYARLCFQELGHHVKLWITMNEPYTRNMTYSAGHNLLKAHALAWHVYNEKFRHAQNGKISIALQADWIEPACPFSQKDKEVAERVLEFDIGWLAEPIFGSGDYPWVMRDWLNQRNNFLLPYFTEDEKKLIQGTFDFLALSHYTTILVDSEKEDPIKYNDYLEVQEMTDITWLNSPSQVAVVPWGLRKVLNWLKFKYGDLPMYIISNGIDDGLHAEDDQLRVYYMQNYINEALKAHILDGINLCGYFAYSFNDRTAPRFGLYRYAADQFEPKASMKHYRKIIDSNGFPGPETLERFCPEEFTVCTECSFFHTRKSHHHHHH
Protocol: Affinity estimates for each of the antibodies were determined by surface plasmon resonance (SPR). Fabs were immobilized using an anti-H+L antibody and serial dilutions of αKlotho were injected.

[2] = target: T3, human FGFR1c ligand-binding domain (human, UniProt P11362 142-365); experiment: Fab-phage ELISA, immobilised antigen
T3 construct: range 142-365; also called FGFR1c alone
T3 sequence (looked up): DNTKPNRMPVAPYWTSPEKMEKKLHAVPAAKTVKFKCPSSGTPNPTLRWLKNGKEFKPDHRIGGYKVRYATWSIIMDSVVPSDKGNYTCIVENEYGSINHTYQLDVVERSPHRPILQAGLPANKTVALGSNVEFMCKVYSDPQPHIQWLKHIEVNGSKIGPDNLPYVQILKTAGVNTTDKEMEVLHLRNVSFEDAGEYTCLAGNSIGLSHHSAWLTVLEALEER

bovine serum albumin = target: T4, bovine serum albumin (bovine, UniProt P02769 25-607); experiment: Fab ELISA, Fab 5 ug/ml on immobilised antigen, anti-Flag-HRP, A450
T4 construct: also called BSA
Protocol: (§1) Fab ELISA using both human and mouse αKlotho was carried out for assessing cross-reactivity to human and mouse αKlotho (FIG. 16). Fabs (5 ug/ml) were incubated with immobilized αKlotho human, mouse, or neutravidin (NA) and SBA as negative controls. After washing off unbound Fab, bound Fab were detected using an HRP-conjugated anti-Flag antibody (Fabs have Falg tag on the end of their light chains). Colorimetric HRP reagents allow for absorbance readings at 450 nm.

neutravidin = target: T5, neutravidin (UniProt P02701 25-152); experiment: as above
T5 construct: also called NA; NAV
Protocol: as §1

T4 sequence (P02769 25-607 limits assumed): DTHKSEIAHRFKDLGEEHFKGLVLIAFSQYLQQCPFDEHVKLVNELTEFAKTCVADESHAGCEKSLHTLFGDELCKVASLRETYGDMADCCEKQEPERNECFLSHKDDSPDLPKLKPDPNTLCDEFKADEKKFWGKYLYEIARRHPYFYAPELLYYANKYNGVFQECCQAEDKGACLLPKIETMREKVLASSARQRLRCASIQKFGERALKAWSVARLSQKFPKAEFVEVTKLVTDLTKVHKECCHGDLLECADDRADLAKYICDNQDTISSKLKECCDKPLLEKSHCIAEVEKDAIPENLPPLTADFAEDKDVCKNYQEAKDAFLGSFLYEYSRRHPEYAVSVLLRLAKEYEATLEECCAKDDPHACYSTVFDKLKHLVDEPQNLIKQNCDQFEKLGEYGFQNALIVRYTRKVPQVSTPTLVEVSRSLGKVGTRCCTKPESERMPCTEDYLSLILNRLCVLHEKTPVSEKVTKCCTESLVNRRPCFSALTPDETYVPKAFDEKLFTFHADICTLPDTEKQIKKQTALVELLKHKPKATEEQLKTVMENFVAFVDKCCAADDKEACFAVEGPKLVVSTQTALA
T5 sequence (P02701 25-152): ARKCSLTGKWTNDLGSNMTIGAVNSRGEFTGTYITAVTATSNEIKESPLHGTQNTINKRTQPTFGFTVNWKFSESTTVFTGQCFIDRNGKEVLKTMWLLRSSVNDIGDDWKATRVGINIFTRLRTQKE

Kd (mouse αKlotho): 0.784 nM | koff (mouse αKlotho): 0.000159 s⁻¹ | kon (mouse αKlotho): 202000 M⁻¹ s⁻¹ | Kd [1]: 1.9 nM | binding result [2]: no binding | binding result (bovine serum albumin): no binding (tested: 5 ug/ml) | binding result (neutravidin): no binding (tested: 5 ug/ml)
B1: sb106 Fab (Fab, V domains shown)
VH: EVQLVESGGGLVQPGGSLRLSCAASGFNISYYSIHWVRQAPGKGLEWVAYISPSYGYTSYADSVKGRFTISADTSKNTAYLQMNSLRAEDTAVYYCARYYVYASHGWAGYGMDYWGQGTLVTVSS
VL: DIQMTQSPSSLSASVGDRVTITCRASQSVSSAVAWYQQKPGKAPKLLIYSASSLYSGVPSRFSGSRSGTDFTLTISSLQPEDFATYYCQQAGYSPITFGQGTKVEIKR
notes: also called Fsb106; clone 48
